# Reference: patent publication US20210002356A1 (ZHUHAI TRINOMAB BIOTECHNOLOGY, published 2021)
# Biological target: tetanus toxin (Clostridium tetani, UniProt P04958 2-1315)
# Sequence (P04958 2-457 limits assumed, chain 1 of 2): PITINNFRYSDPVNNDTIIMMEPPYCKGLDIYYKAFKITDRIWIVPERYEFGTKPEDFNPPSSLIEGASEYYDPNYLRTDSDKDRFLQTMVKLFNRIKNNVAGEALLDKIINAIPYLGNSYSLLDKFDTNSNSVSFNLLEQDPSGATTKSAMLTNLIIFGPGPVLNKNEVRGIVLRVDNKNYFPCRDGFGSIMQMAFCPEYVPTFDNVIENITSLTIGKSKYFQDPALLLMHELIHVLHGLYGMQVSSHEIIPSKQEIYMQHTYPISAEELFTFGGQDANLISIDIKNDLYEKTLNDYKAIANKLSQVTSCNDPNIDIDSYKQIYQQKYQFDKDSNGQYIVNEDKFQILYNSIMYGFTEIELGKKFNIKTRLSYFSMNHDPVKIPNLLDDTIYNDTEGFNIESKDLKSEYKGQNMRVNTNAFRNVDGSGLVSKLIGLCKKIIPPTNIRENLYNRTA
# Sequence (P04958 458-1315 limits assumed, chain 2 of 2): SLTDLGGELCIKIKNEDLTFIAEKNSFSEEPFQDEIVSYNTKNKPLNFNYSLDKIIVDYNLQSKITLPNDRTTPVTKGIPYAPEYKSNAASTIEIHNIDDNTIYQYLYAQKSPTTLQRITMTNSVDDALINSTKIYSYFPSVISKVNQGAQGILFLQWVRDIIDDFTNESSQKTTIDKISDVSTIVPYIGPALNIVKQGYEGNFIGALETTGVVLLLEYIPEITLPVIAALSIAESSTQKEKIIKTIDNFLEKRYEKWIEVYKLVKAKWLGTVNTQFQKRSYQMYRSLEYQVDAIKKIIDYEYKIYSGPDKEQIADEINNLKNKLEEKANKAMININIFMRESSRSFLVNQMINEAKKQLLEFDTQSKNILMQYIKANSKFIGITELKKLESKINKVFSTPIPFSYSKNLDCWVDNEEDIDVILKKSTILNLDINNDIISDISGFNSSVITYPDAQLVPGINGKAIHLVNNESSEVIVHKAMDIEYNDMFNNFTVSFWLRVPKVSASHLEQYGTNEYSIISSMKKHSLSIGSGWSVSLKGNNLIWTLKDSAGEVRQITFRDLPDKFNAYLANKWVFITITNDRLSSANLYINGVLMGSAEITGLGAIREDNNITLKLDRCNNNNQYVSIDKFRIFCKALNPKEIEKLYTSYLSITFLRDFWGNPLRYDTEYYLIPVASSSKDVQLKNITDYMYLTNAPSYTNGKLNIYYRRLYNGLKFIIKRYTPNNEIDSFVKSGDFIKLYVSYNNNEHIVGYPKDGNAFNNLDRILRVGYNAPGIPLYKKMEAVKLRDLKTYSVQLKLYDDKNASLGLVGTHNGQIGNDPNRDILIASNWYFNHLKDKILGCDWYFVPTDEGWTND
Binder,Kd [nM],koff [s⁻¹],kon [M⁻¹ s⁻¹]
"TRN0010 antibody (antibody, V domains shown) VH: QVQLQESGPGLVKPSETLSLRCTVSGGSISSYYWSWFRQPPGKGLEWIGYVHYSGSTNYNPSLKSRFTLSVDTSKSQFSLRLRSVTAADTAIYYCARDKYQTDVSDIWGQGTVVTVSS VL: DIQMTQSPGTLSLSPGERATLSCRASQSITSSFLAWYQQKPGQAPRLLIYGASSRATGIPDRFSGSGSGTDFILTISRLEPEDFAVYYCQQYDTSRTFGQGTTVEIK",3.68,0.000153,41500
"TRN0012 antibody (antibody, V domains shown) VH: EVQLVQSGAEVKKPGESLRISCQGSGYTFTNYWIGWVRQMPGKGLEWMGIVYPGDSDTRYSPSFQGQITISADKSISTAYLQWNNLKASDTGMYYCATQQSNPYDSGSYWYFDSWGQGTLVTVSS VL: DIVMTQSPPSLSASIGDRVTITCRASQGIRNFLAWYQQKPGKVPKLLIYAASTLQSGVPSRFSGSGSGTDFTLTISSLQPEDVATYYCQKYFSAPPDFGQGTRLEIK",4.07,0.000328,80600
